Each block holds one binder with its values, some of them ahead of it.
What was measured:
[1] = target: T1, α-crystallin domain of HspB7 (AcdB7) containing residues 77-155 (UniProt Q9UBY9 77-155); assay: native gel or EMSA; fixed HspB7 (25 or 30 µM) or AcdB7 (35 µM) in 20 mM Tris-acetate pH 7.6, 100 mM NaCl titrated with 0-120 µM FLNC fragment, 30 min at 30 °C; native 12.5% polyacrylamide gel, Tris-glycine pH 8.6; band intensities, semi quantitative, apparent affinity; settings: both partners purified
T1 construct: small heat shock protein HspB7, α-crystallin domain, residues 77-155; source: recombinant, expressed and purified as described earlier [25,34]
T1 sequence (Q9UBY9 77-155): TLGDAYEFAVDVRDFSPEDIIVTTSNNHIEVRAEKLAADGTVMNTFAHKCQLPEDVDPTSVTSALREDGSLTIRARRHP

[2] = target: T2, small heat shock protein HspB7 (full-size) (UniProt Q9UBY9 1-170); assay: as above; settings: both partners purified
T2 construct: small heat shock protein HspB7, full-size; also called full-size HspB7; full-length HspB7; source: recombinant, expressed and purified as described earlier [25,34]
T2 sequence (Q9UBY9 whole entry): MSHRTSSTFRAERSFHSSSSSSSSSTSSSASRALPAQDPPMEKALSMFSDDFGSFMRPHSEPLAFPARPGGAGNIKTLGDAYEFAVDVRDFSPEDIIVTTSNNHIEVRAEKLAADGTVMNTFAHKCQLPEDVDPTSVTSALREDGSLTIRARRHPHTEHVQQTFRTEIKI

[3] = target: the molecule itself; assay: SEC; isolated FLNC fragments, 0.1 mg in 100 µL, Superdex 200 10/300, 0.5 mL/min, 50 mM Na-phosphate pH 7.4, 150 mM NaCl, 0.1 mM EDTA, 0.1 mM PMSF, 2 mM DTT, room temperature; apparent molecular weights from column calibration
[4] = target: the molecule itself; assay: cross-linking; isolated proteins or equimolar mixture, 30 min at 30 °C in 25 mM HEPES/NaOH pH 7.4, 100 mM NaCl, 2 mM DTT, then 0.0125% glutaraldehyde 30 min at 30 °C; SDS gel and anti-HspB7 immunoblot

EC50 [1]: ~20 µM
stoichiometry N [1]: 1
EC50 [2]: ~10 µM
stoichiometry N [2]: 2 HspB7/FLNC
B1: wild-type (WT) C-terminal fragment of human filamin C (FLNC) containing immunoglobulin-like domains 22-24 (domain or fragment, UniProt Q14315 2403-2725, looked up)
chain: SLSDDARRLTVTSLQETGLKVNQPASFAVQLNGARGVIDARVHTPSGAVEECYVSELDSDKHTIRFIPHENGVHSIDVKFNGAHIPGSPFKIRVGEQSQAGDPGLVSAYGPGLEGGTTGVSSEFIVNTLNAGSGALSVTIDGPSKVQLDCRECPEGHVVTYTPMAPGNYLIAIKYGGPQHIVGSPFKAKVTGPRLSGGHSLHETSTVLVETVTKSSSSRGSSYSSIPKFSSDASKVVTRGPGLSQAFVGQKNSFTVDCSKAGTNMMMVGVHGPKTPCEEVYVKHMGNRVYNVTYTVKEKGDYILIVKWGDESVPGSPFKVKVP
notes: human filamin C (FLNC), Uniprot Q14315, immunoglobulin-like domains 22-24, amino acid residues 2403-2725; Dimer by SEC and cross-linking; also called WT FLNC; WT FLNC fragment; source: recombinant, expressed and purified as described earlier [23]; (ion-exchange and size-exclusion chromatography)
stoichiometry N [3]: 2

B2: ΔPGL mutant (p.P2643_L2645del) of the FLNC fragment containing immunoglobulin-like domains 22-24 (domain or fragment, human, UniProt Q14315 2403-2725, looked up)
chain: SLSDDARRLTVTSLQETGLKVNQPASFAVQLNGARGVIDARVHTPSGAVEECYVSELDSDKHTIRFIPHENGVHSIDVKFNGAHIPGSPFKIRVGEQSQAGDPGLVSAYGPGLEGGTTGVSSEFIVNTLNAGSGALSVTIDGPSKVQLDCRECPEGHVVTYTPMAPGNYLIAIKYGGPQHIVGSPFKAKVTGPRLSGGHSLHETSTVLVETVTKSSSSRGSSYSSIPKFSSDASKVVTRGSQAFVGQKNSFTVDCSKAGTNMMMVGVHGPKTPCEEVYVKHMGNRVYNVTYTVKEKGDYILIVKWGDESVPGSPFKVKVP
notes: human filamin C (FLNC), Uniprot Q14315, residues 2403-2725, with deletion of the tripeptide 2643-PGL-2645 (mutation associated with restrictive cardiomyopathy); also called ΔPGL FLNC; c.7927_7935del; source: recombinant, expressed and purified as described earlier [23]; (ion-exchange and size-exclusion chromatography)
stoichiometry N [4]: 2

EC50 [1]: ~20 µM
stoichiometry N [1]: 1
EC50 [2]: ~10 µM
stoichiometry N [2]: 2 HspB7/FLNC
B3: EN/D mutant (p.Glu2472_Asn2473delinsAsp) of the FLNC fragment containing immunoglobulin-like domains 22-24 (domain or fragment, human, UniProt Q14315 2403-2725, looked up)
chain: SLSDDARRLTVTSLQETGLKVNQPASFAVQLNGARGVIDARVHTPSGAVEECYVSELDSDKHTIRFIPHDGVHSIDVKFNGAHIPGSPFKIRVGEQSQAGDPGLVSAYGPGLEGGTTGVSSEFIVNTLNAGSGALSVTIDGPSKVQLDCRECPEGHVVTYTPMAPGNYLIAIKYGGPQHIVGSPFKAKVTGPRLSGGHSLHETSTVLVETVTKSSSSRGSSYSSIPKFSSDASKVVTRGPGLSQAFVGQKNSFTVDCSKAGTNMMMVGVHGPKTPCEEVYVKHMGNRVYNVTYTVKEKGDYILIVKWGDESVPGSPFKVKVP
notes: human filamin C (FLNC), Uniprot Q14315, residues 2403-2725, with Glu2472 and Asn2473 replaced by Asp (mutation associated with restrictive cardiomyopathy); also called c.7416_7418delGAA; source: recombinant, expressed and purified as described earlier [23]; (ion-exchange and size-exclusion chromatography)
stoichiometry N [3]: 2
